Experiment [1] has as its target SBP-tagged HER3-ECD (human). As to the kind of experiment: ELISA-type assay, 10 nM Eu-labelled Heregulin-beta on plate-bound SBP-tagged HER3-ECD, M-05-74 titrated. For orientation: ELISA stands for enzyme-linked immunosorbent assay.
Experiment [2] deals with T1, HER3 ECD-HRG complex (human, UniProt P21860 20-643).
T1 construct: Her-3 ECD pre-incubated with a 5-fold molar excess of Heregulin; also called Heregulin/Her-3 ECD
Briefly: SPR Biacore T100, antibody captured. (In general: Surface plasmon resonance follows binding to a sensor surface in real time, without labels.)

Another experiment concerns the target T2, HER4 ECD-HRG complex (human, UniProt Q15303 26-651).
T2 construct: Her-4 ECD pre-incubated with a 5-fold molar excess of Heregulin; also called Her-4 ECD/Heregulin complex
T2 sequence 1: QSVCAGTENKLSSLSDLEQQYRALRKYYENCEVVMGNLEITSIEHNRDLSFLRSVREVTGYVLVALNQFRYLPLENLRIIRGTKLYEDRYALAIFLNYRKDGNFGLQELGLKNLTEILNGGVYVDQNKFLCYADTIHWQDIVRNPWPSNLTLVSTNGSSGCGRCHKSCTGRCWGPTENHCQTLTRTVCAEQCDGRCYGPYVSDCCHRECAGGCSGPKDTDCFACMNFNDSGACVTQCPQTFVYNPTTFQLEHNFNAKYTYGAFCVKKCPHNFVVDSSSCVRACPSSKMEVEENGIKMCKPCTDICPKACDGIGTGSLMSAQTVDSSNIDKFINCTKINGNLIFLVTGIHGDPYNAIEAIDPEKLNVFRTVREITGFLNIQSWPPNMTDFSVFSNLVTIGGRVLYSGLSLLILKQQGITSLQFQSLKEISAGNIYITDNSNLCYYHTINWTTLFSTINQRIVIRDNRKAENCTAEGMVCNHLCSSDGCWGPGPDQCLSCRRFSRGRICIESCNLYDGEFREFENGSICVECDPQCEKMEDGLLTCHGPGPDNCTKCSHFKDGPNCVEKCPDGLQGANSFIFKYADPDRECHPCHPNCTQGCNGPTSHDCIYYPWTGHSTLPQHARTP
T2 sequence 2: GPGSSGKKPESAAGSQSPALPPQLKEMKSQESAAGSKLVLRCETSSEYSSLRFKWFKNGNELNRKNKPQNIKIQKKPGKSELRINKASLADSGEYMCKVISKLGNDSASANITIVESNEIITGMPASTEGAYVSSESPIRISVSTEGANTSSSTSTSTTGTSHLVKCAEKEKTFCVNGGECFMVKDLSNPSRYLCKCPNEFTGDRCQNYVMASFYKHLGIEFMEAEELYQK
As to the kind of experiment: SPR Biacore T100, antibody captured.

Experiment [3] concerns the target T1, HER3 ECD-HRG complex. Briefly: binding affinity; method not restated (evaluated 'as described above').
The target in experiment [4] is T3, human recombinant HER3 ECD (human, UniProt P21860 20-643).
T3 construct: 68 kDa recombinant protein; also called human-Her3-ECD; full length Her3 ECD
T3 sequence (P21860 20-643): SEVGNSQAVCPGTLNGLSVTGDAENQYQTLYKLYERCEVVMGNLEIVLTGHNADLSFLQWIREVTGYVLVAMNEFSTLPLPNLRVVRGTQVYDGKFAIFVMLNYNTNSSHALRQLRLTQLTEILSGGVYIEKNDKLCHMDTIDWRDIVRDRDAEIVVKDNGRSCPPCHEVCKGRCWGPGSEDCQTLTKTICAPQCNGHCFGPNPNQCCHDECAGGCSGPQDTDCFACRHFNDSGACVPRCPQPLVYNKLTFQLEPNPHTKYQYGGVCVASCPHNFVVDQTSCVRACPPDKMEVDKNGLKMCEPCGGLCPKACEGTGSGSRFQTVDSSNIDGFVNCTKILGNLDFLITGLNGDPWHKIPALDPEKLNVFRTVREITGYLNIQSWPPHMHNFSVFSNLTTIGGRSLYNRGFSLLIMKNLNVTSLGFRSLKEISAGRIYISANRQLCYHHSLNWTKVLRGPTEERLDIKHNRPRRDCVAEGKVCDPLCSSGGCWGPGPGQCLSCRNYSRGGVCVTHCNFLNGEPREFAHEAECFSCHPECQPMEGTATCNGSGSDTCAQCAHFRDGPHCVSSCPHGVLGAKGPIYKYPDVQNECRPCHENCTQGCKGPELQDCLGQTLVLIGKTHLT
As to the kind of experiment: binding affinity; method not restated (evaluated 'as described above'); HER3-ECD without HRG.

The target of experiment [5] is T3, human recombinant HER3 ECD. Briefly: binding affinity; method not restated (evaluated 'as described above').

One may read the Kd as the constant that tells how readily two partners part at equilibrium.

T1 sequence (P21860 20-643 limits assumed, one chain of several): as the sequence (P21860 20-643) above
SBP-tagged HER3-ECD (human), sequence (chain, as listed by the source limits assumed, form in doubt): as the sequence (P21860 20-643) above

“Europium-labeled Heregulin-beta (PeproTech, Cat. #100-03) (from UniProt Q02297-11 122-186) (ligand)”: the time-resolved fluorescence signal at the plateau, in the presence of M-05-74 in experiment [1] amounted to 650.

B1: anti-HER3/HER4 antibody M-05-74 (antibody, V domains shown)
VH: QVQLQQSGAELAKPGASVKMSCKTSGYTLTDYWIHWVKQRPGQGLEWIGYINPYTGYTESNQKFKDKATLTADKSSNTAYIQLSSLTSEDSAVYYCARPYYYGDYWGQGTTLTVSS
VL: QIVLTQSPAIMSASPGERVTITCSASSSVSYMHWFQQKPGTSPKLLIYSTSNLASGVPARFSGSGSGTSYSLTISRMEAEDAATYYCQQRSSYPFTFGSGTKLEIK
notes: Murine monoclonal antibody from hybridoma (culture supernatant or purified full length); also called M-074; M-5-74
As to B1, in the experiment with HER3 ECD-HRG complex [2], the “ratio MR (+Heregulin)/MR (-Heregulin), against HER3-ECD alone” value stood at 3 fold and the “ratio ka (+Heregulin)/ka (-Heregulin), against HER3-ECD alone” value was 4.85 fold. In the experiment with HER4 ECD-HRG complex, the “ratio MR (+Heregulin)/MR (-Heregulin), against HER4-ECD alone” value is 6 fold and the “ratio ka (+Heregulin)/ka (-Heregulin), against HER4-ECD alone” value worked out at 23.9 fold.

B2: huMab M-05-74_5 (antibody, V domains shown)
VH: QVQLVQSGAELKKPGASVKVSCKASGYTLTDYWIHWVRQAPGQGLEWMGYINPYTGYTESNQKFQGRVTMTADTSTSTAYMELSSLRSEDTAVYYCARPYYYGDYWGQGTTVTVSS
VL: EIVLTQSPATLSLSPGERATLSCRASSSVSYMHWYQQKPGQAPRLLIYSTSNLATGIPARFSGSGSGTDFTLTISSLEPEDFAVYYCQQRSSYPFTFGQGTKLEIK
notes: Humanized variant of M-05-74
Take B2: the values for the Kd (with HER3 ECD-HRG complex [3]; in experiment [4]) were 4.1 nM and 3.2 nM, respectively.

B3: huMab M-05-74_6 (antibody, V domains shown)
VH: B2 VH
VL: DIQMTQSPSSLSASVGDRVTITCRASSSVSYMHWFQQKPGKAPKLLIYSTSNLQSGVPSRFSGSGSGTDFTLTISSLQPEDFATYYCQQRSSYPFTFGQGTKLEIK
notes: Humanized variant of M-05-74
As for B3, the results for the Kd (in experiment [5]; with HER3 ECD-HRG complex [3]) were 8.3 nM and 8.6 nM, respectively.

For the origin of these results see US20180118837A1 (Hoffmann-La Roche, published 2018).
